In publication doi:10.1101/2023.03.28.534543:

Legend:
Test in all cases: SEC
[1] = target: CdpB1 from Archaeoglobus fulgidus (Archaeoglobus fulgidus)
[2] = target: CdpB2 from Archaeoglobus fulgidus (Archaeoglobus fulgidus)
[3] = target: SepF from Archaeoglobus fulgidus (Archaeoglobus fulgidus)

## CdpB1 from Archaeoglobus fulgidus (natural protein)
[1]
  stoichiometry N: 2

## CdpB2 from Archaeoglobus fulgidus (natural protein)
[2]
  stoichiometry N: 2

## SepF from Archaeoglobus fulgidus (natural protein)
[3]
  stoichiometry N: 2
